The text below walks through data of patent US11267868 (dated 2022).

Common to all, as to test: SPR
One assay has as its target T1, FcgRIIaH (human, UniProt P12318).
T1 chain: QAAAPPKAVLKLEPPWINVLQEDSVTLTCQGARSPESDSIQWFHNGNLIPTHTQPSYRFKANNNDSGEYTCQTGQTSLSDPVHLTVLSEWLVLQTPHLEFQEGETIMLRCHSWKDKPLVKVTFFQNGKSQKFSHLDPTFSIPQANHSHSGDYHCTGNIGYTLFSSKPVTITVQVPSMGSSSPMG

For another assay, the target named is T2, FcgRIIb (human, UniProt P31994).
T2 chain: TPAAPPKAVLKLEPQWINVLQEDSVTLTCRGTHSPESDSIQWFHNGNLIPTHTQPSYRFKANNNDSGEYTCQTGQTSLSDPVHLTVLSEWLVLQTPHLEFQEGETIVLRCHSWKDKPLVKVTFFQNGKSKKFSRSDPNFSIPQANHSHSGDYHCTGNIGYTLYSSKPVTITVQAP

For a further assay, the target named is T3, FcgRIa (human, UniProt P12314).
T3 chain: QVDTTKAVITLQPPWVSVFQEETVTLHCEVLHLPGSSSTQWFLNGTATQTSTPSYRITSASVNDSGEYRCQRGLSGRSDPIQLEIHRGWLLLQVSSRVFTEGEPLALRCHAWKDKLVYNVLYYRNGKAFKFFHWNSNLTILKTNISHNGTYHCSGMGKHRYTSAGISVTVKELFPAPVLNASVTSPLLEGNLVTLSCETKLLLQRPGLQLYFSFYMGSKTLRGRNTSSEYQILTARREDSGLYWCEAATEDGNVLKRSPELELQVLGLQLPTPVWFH

For the next assay, the target named is T4, FcgRIIaR (human, UniProt P12318).
T4 chain: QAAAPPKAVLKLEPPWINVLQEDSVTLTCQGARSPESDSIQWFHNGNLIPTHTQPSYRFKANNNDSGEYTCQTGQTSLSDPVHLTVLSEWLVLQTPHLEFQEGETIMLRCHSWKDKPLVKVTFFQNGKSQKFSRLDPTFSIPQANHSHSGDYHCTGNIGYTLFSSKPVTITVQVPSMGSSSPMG

The target of the next assay is FcgRIIIaV (human, UniProt P08637).
FcgRIIIaV, sequence (P08637 17-208 F176V): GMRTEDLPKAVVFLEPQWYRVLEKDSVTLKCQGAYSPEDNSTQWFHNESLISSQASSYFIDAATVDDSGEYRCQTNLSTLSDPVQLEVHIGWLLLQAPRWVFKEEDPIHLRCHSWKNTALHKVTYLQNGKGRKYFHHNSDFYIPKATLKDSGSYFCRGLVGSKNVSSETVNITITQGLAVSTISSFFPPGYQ

B1: IL6R-P729/IL6R-L (antibody)
chain 1: QVQLQESGPGLVKPSETLSLTCAVSGHSISHDHAWSWVRQPPGEGLEWIGFISYSGITNYNPSLQGRVTISRDNSKNTLYLQMNSLRAEDTAVYYCARSLARTTAMDYWGEGTLVTVSSASTKGPSVFPLAPSSKSTSGGTAALGCLVKDYFPEPVTVSWNSGALTSGVHTFPAVLQSSGLYSLSSVVTVPSSSLGTQTYICNVNHKPSNTKVDKKVEPKSCDKTHTCPPCPAPELFGQDSVMLFPPKPKDTLMISRTPEVTCVVVDVSPEDPEVKFNWYVDGVEVHNAKTKPREEQENSTYRVVSVLTVLHQDWLNGKEYKCKVSNKALPAPIEKTISKAKGQPREPQVYTLPPSRDELTKNQVSLTCLVKGFYPSDIAVEWESNGQPENNYKTTPPVLDSDGSFFLYSKLTVDKSRWQQGNVFSCSVMHEALHNHYTQKSLSLSP
chain 2: not shown
The term Kd denotes the free concentration of one partner at which half of the binding sites on the other are occupied at equilibrium, for simple one-to-one binding. Low values mean higher affinity, high ones lower affinity. Regarding B1, the Kd with FcgRIIaH amounted to 180 µM; with FcgRIIb it was 4.4 µM; in the assay with FcgRIa, 660 nM; with FcgRIIaR it was 83 µM; with FcgRIIIaV, 56 µM.

B2: IL6R-P602/IL6R-L (antibody)
chain 1: QVQLQESGPGLVKPSETLSLTCAVSGHSISHDHAWSWVRQPPGEGLEWIGFISYSGITNYNPSLQGRVTISRDNSKNTLYLQMNSLRAEDTAVYYCARSLARTTAMDYWGEGTLVTVSSASTKGPSVFPLAPSSKSTSGGTAALGCLVKDYFPEPVTVSWNSGALTSGVHTFPAVLQSSGLYSLSSVVTVPSSSLGTQTYICNVNHKPSNTKVDKKVEPKSCDKTHTCPPCPAPELLGGDSVMLFPPKPKDTLMISRTPEVTCVVVDVSHEDPEVKFNWYVDGVEVHNAKTKPREEVENSTYRVVSVLTVLHQDWLNGKEYKCKVSNKALPAPIEKTISKAKGQPREPQVYTLPPSRDELTKNQVSLTCLVKGFYPSDIAVEWESNGQPENNYKTTPPVLDSDGSFFLYSKLTVDKSRWQQGNVFSCSVMHEALHNHYTQKSLSLSP
chain 2: not shown
On to B2, for which the dissociation constant (Kd) with FcgRIIaH was 100 µM; in the assay with FcgRIIb it was 2.4 µM; in the assay with FcgRIa, 19 nM; with FcgRIIaR, 44 µM; with FcgRIIIaV it was 61 µM.

B3: IL6R-P693/IL6R-L (antibody)
chain 1: QVQLQESGPGLVKPSETLSLTCAVSGHSISHDHAWSWVRQPPGEGLEWIGFISYSGITNYNPSLQGRVTISRDNSKNTLYLQMNSLRAEDTAVYYCARSLARTTAMDYWGEGTLVTVSSASTKGPSVFPLAPSSKSTSGGTAALGCLVKDYFPEPVTVSWNSGALTSGVHTFPAVLQSSGLYSLSSVVTVPSSSLGTQTYICNVNHKPSNTKVDKKVEPKSCDKTHTCPPCPAPELLGGDSVFLFPPKPKDTLMISRTPEVTCVVVDVSHEDPEVKFNWYVDGVEVHNAKTKPREEQENATYRVVSVLTVLHQDWLNGKEYKCKVSNKALPAPIEKTISKAKGQPREPQVYTLPPSRDELTKNQVSLTCLVKGFYPSDIAVEWESNGQPENNYKTTPPVLDSDGSFFLYSKLTVDKSRWQQGNVFSCSVMHEALHNHYTQKSLSLSP
chain 2: not shown
Take B3: the dissociation constant Kd amounted to 150 µM with FcgRIIaH; 5.6 µM in the assay with FcgRIIb; 7.8 nM with FcgRIa; 68 µM with FcgRIIaR; 40 µM with FcgRIIIaV.

B4: IL6R-P604/IL6R-L (antibody)
chain 1: QVQLQESGPGLVKPSETLSLTCAVSGHSISHDHAWSWVRQPPGEGLEWIGFISYSGITNYNPSLQGRVTISRDNSKNTLYLQMNSLRAEDTAVYYCARSLARTTAMDYWGEGTLVTVSSASTKGPSVFPLAPSSKSTSGGTAALGCLVKDYFPEPVTVSWNSGALTSGVHTFPAVLQSSGLYSLSSVVTVPSSSLGTQTYICNVNHKPSNTKVDKKVEPKSCDKTHTCPPCPAPELLGGDSVMLFPPKPKDTLMISRTPEVTCVVVDVSHEDPEVKFNWYVDGVEVHNAKTKPREEQENATYRVVSVLTVLHQDWLNGKEYKCKVSNKALPAPIEKTISKAKGQPREPQVYTLPPSRDELTKNQVSLTCLVKGFYPSDIAVEWESNGQPENNYKTTPPVLDSDGSFFLYSKLTVDKSRWQQGNVFSCSVMHEALHNHYTQKSLSLSP
chain 2: not shown
Regarding B4, the Kd is 120 µM with FcgRIIaH, 5.5 µM with FcgRIIb, 64 µM in the assay with FcgRIIaR and 40 µM in the assay with FcgRIIIaV.

B5: IL6R-P689/IL6R-L (antibody)
chain 1: QVQLQESGPGLVKPSETLSLTCAVSGHSISHDHAWSWVRQPPGEGLEWIGFISYSGITNYNPSLQGRVTISRDNSKNTLYLQMNSLRAEDTAVYYCARSLARTTAMDYWGEGTLVTVSSASTKGPSVFPLAPSSKSTSGGTAALGCLVKDYFPEPVTVSWNSGALTSGVHTFPAVLQSSGLYSLSSVVTVPSSSLGTQTYICNVNHKPSNTKVDKKVEPKSCDKTHTCPPCPAPELLGGDSVMLFPPKPKDTLMISRTPEVTCVVVDVSPEDPEVKFNWYVDGVEVHNAKTKPREEQENSTYRVVSVLTVLHQDWLNGKEYKCKVHNKALPAPIEKTISKAKGQPREPQVYTLPPSRDELTKNQVSLTCLVKGFYPSDIAVEWESNGQPENNYKTTPPVLDSDGSFFLYSKLTVDKSRWQQGNVFSCSVMHEALHNHYTQKSLSLSP
chain 2: not shown
On to B5, for which the dissociation constant Kd with FcgRIIaH was determined as 120 µM; with FcgRIIb, 4.7 µM; with FcgRIa, 28 nM; in the assay with FcgRIIaR, 78 µM; with FcgRIIIaV, 52 µM.

B6: IL6R-P688/IL6R-L (antibody)
chain 1: QVQLQESGPGLVKPSETLSLTCAVSGHSISHDHAWSWVRQPPGEGLEWIGFISYSGITNYNPSLQGRVTISRDNSKNTLYLQMNSLRAEDTAVYYCARSLARTTAMDYWGEGTLVTVSSASTKGPSVFPLAPSSKSTSGGTAALGCLVKDYFPEPVTVSWNSGALTSGVHTFPAVLQSSGLYSLSSVVTVPSSSLGTQTYICNVNHKPSNTKVDKKVEPKSCDKTHTCPPCPAPELLGGDSVMLFPPKPKDTLMISRTPEVTCVVVDVSPEDPEVKFNWYVDGVEVHNAKTKPREEQENSTYRVVSVLTVLHQDWLNGKEYKCKVNNKALPAPIEKTISKAKGQPREPQVYTLPPSRDELTKNQVSLTCLVKGFYPSDIAVEWESNGQPENNYKTTPPVLDSDGSFFLYSKLTVDKSRWQQGNVFSCSVMHEALHNHYTQKSLSLSP
chain 2: not shown
Take B6: the Kd was determined as 110 µM with FcgRIIaH, 4.1 µM in the assay with FcgRIIb, 58 µM in the assay with FcgRIIaR and 44 µM with FcgRIIIaV.

B7: IL6R-P656/IL6R-L (antibody)
chain 1: QVQLQESGPGLVKPSETLSLTCAVSGHSISHDHAWSWVRQPPGEGLEWIGFISYSGITNYNPSLQGRVTISRDNSKNTLYLQMNSLRAEDTAVYYCARSLARTTAMDYWGEGTLVTVSSASTKGPSVFPLAPSSKSTSGGTAALGCLVKDYFPEPVTVSWNSGALTSGVHTFPAVLQSSGLYSLSSVVTVPSSSLGTQTYICNVNHKPSNTKVDKKVEPKSCDKTHTCPPCPAPELLGGDSVMLFPPKPKDTLMISRTPEVTCVVVDVSHEDPEVKFNWYVDGVEVHNAKTKPREEQENSTYRVVSVLTVLHQDWLNGKEYKCKVSNKALPHPIEKTISKAKGQPREPQVYTLPPSRDELTKNQVSLTCLVKGFYPSDIAVEWESNGQPENNYKTTPPVLDSDGSFFLYSKLTVDKSRWQQGNVFSCSVMHEALHNHYTQKSLSLSP
chain 2: not shown
B7: the Kd in the assay with FcgRIIaH was determined as 84 µM; in the assay with FcgRIIb it was 1.9 µM; in the assay with FcgRIa it was 28 nM; with FcgRIIaR, 39 µM; with FcgRIIIaV it was 50 µM.

B8: IL6R-P654/IL6R-L (antibody)
chain 1: QVQLQESGPGLVKPSETLSLTCAVSGHSISHDHAWSWVRQPPGEGLEWIGFISYSGITNYNPSLQGRVTISRDNSKNTLYLQMNSLRAEDTAVYYCARSLARTTAMDYWGEGTLVTVSSASTKGPSVFPLAPSSKSTSGGTAALGCLVKDYFPEPVTVSWNSGALTSGVHTFPAVLQSSGLYSLSSVVTVPSSSLGTQTYICNVNHKPSNTKVDKKVEPKSCDKTHTCPPCPAPELLGGDSVMLFPPKPKDTLMISRTPEVTCVVVDVSHEDPEVKFNWYVDGVEVHNAKTKPREEQENSTYRVVSVLTVLHQDWLNGKEYKCKVNNKALPAPIEKTISKAKGQPREPQVYTLPPSRDELTKNQVSLTCLVKGFYPSDIAVEWESNGQPENNYKTTPPVLDSDGSFFLYSKLTVDKSRWQQGNVFSCSVMHEALHNHYTQKSLSLSP
chain 2: not shown
For the molecule B8, the Kd with FcgRIIaH was 68 µM; with FcgRIIb, 2.6 µM; with FcgRIa it was 16 nM; in the assay with FcgRIIaR it was 39 µM; in the assay with FcgRIIIaV it was 48 µM.

B9: IL6R-P692/IL6R-L (antibody)
chain 1: QVQLQESGPGLVKPSETLSLTCAVSGHSISHDHAWSWVRQPPGEGLEWIGFISYSGITNYNPSLQGRVTISRDNSKNTLYLQMNSLRAEDTAVYYCARSLARTTAMDYWGEGTLVTVSSASTKGPSVFPLAPSSKSTSGGTAALGCLVKDYFPEPVTVSWNSGALTSGVHTFPAVLQSSGLYSLSSVVTVPSSSLGTQTYICNVNHKPSNTKVDKKVEPKSCDKTHTCPPCPAPELFGQDSVMLFPPKPKDTLMISRTPEVTCVVVDVSHEDPEVKFNWYVDGVEVHNAKTKPREEQENSTYRVVSVLTVLHQDWLNGKEYKCKVSNKALPHPIEKTISKAKGQPREPQVYTLPPSRDELTKNQVSLTCLVKGFYPSDIAVEWESNGQPENNYKTTPPVLDSDGSFFLYSKLTVDKSRWQQGNVFSCSVMHEALHNHYTQKSLSLSP
chain 2: not shown
B9: the dissociation constant Kd in the assay with FcgRIIaH is 120 µM; in the assay with FcgRIIb, 2.7 µM; with FcgRIa, 530 nM; with FcgRIIaR it was 56 µM; in the assay with FcgRIIIaV it was 57 µM.
